{"source": "patent US20210292393A1", "binders": {"B1": {"name": "antibody 262 (antibody, V domains shown)", "VH": "QVQLVESGGGVVQPGRSLRLSCAASGFTFSSYAMHWVRQAPGKGLEWVAVISYDGSNKYYADSVKGRFTISRDNSKNTLYLQMNSLRAEDTAVYYCARDGGELLWFGELDYYGMDVWGQGTTVTVSS", "VL": "SYELTQPSSVSVSPGQTARITCSGDVLAKKYARWFQQKPGQAPVLVIYKDSERPSGIPERFSGSSSGTTVTLTISGAQVEDEADYYCYSAADNNRGVFGGGTKLTVL"}}, "target": "SARS-CoV-2 full length spike protein, V483A mutant (SARS-CoV-2), P0DTC2", "conditions": "remark: other sources report otherwise", "data": [{"binder": "B1", "values": [{"measurement": "median fluorescence intensity, fold over isotype control (fold over isotype)", "result": 1.63}]}]}
